The target in test [1] is T1, GST–PPARα fusion protein (purified ligand binding domain of PPARα).
T1 sequence (Q07869 whole entry, species assumed, looked up): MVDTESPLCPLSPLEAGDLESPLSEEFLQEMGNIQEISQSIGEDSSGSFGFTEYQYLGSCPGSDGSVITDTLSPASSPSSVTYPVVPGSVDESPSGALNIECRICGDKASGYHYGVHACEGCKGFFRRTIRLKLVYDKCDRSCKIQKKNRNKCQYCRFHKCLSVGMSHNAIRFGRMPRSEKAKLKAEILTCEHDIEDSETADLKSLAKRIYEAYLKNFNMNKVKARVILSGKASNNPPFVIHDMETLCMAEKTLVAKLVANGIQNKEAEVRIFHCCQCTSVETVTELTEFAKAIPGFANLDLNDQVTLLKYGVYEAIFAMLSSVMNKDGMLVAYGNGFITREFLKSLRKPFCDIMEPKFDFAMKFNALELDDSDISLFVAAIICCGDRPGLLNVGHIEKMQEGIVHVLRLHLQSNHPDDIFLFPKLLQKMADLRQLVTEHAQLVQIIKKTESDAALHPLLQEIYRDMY
The test can be described thus: FRET or BRET; homogeneous TR-FRET as a1, 12-concentration dose–response of aleglitazar; the EC50 is of the compound; delta ratio in % of the reference compound at 10 μM (RO4899100 for PPARα, edaglitazone for PPARγ).

The target in test [2] is T2, GST–PPARγ fusion protein (purified ligand binding domain of PPARγ).
T2 chain: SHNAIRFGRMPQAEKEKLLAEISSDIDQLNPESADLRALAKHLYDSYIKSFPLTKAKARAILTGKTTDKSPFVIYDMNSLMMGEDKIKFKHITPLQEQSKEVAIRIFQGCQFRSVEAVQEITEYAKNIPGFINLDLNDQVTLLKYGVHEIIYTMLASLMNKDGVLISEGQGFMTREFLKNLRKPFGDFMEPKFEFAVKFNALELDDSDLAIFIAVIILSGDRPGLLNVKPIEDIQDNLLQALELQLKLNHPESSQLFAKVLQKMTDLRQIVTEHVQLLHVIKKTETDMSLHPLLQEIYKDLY
The test can be described thus: FRET or BRET; homogeneous TR-FRET as a1, 12-concentration dose–response of muraglitazar; the EC50 is of the compound; delta ratio in % of the reference compound at 10 μM (RO4899100 for PPARα, edaglitazone for PPARγ). The conditions noted are these: both partners purified. On the technique in general: BRET reads energy transfer from a luciferase to a nearby fluorophore.

For test [3], the target named is T2, GST–PPARγ fusion protein (purified …). Nature of the test: FRET or BRET; homogeneous TR-FRET as a1, 12-concentration dose–response of rosiglitazone; the EC50 is of the compound; delta ratio in % of the reference compound at 10 μM (RO4899100 for PPARα, edaglitazone for PPARγ). Particulars: both partners purified.
Test [4] shares this target. Nature of the test: FRET or BRET; homogeneous TR-FRET as a1, 12-concentration dose–response of aleglitazar; the EC50 is of the compound; delta ratio in % of the reference compound at 10 μM (RO4899100 for PPARα, edaglitazone for PPARγ). The conditions noted are these: both partners purified.
The target is the same in test [5]. The test can be described thus: FRET or BRET; homogeneous TR-FRET as a1, 12-concentration dose–response of pioglitazone; the EC50 is of the compound; delta ratio in % of the reference compound at 10 μM (RO4899100 for PPARα, edaglitazone for PPARγ). The conditions noted are these: both partners purified.
The target of test [6] is T1, GST–PPARα fusion protein (purified ligand binding domain of PPARα). The test can be described thus: FRET or BRET; homogeneous TR-FRET as a1, 12-concentration dose–response of tesaglitazar; the EC50 is of the compound; delta ratio in % of the reference compound at 10 μM (RO4899100 for PPARα, edaglitazone for PPARγ).
The target of test [7] is T2, GST–PPARγ fusion protein (purified …). The test is described as above. The conditions noted are these: both partners purified.
Test [8] has as its target T1, GST–PPARα fusion protein (purified ligand binding domain of PPARα). The test can be described thus: FRET or BRET; homogeneous TR-FRET as a1, 12-concentration dose–response of RO4899100; the EC50 is of the compound; delta ratio in % of the reference compound at 10 μM (RO4899100 for PPARα, edaglitazone for PPARγ).
Test [9] shares this target. Nature of the test: FRET or BRET; homogeneous TR-FRET as a1, 12-concentration dose–response of muraglitazar; the EC50 is of the compound; delta ratio in % of the reference compound at 10 μM (RO4899100 for PPARα, edaglitazone for PPARγ).
Test [10] deals with T2, GST–PPARγ fusion protein (purified …). The test can be described thus: FRET or BRET; homogeneous TR-FRET as a1, 12-concentration dose–response of farglitazar; the EC50 is of the compound; delta ratio in % of the reference compound edaglitazone at 10 μM. Particulars: both partners purified.
Test [11] has the same target. Nature of the test: FRET or BRET; homogeneous TR-FRET as a1, 12-concentration dose–response of edaglitazone; the EC50 is of the compound; delta ratio in % of the reference compound at 10 μM (RO4899100 for PPARα, edaglitazone for PPARγ). The conditions noted are these: both partners purified.
Test [12] has as its target T1, GST–PPARα fusion protein (purified ligand binding domain of PPARα). The description is as above.
For test [13] the target is unchanged. Nature of the test: FRET or BRET; homogeneous TR-FRET as a1, 12-concentration dose–response of fenofibric acid; the EC50 is of the compound; delta ratio in % of the reference compound RO4899100 at 10 μM.

This note sets out measurements from paper PMC3504387 (Chemmedchem, 2012).

Where no end group is shown, it is not given here. The star is where a group is joined. Biotin = O=C1N[C@H]2[C@H](CS[C@H]2CCCCC(=O)*)N1; Ahx = NCCCCCC(=O)O

B1: SMRT ID2 cofactor peptide (silencing mediator of retinoid and thyroid hormone receptors, interaction domain 2) (peptide)
peptide: {Biotin-Ahx}-AVQEHASTNMGLEAIIRKALMGKYD
notes: silencing mediator of retinoid and thyroid hormone receptors (SMRT), ID2, residues 2331-2355; also called SMRT2; source: synthetic peptide (Jerini or Biosynthan, Berlin)
Turning to B1, in test [1], the EC50 of aleglitazar for displacement was 14.1 nM and the delta ratio with aleglitazar was -51%. Further, the “EC50 of muraglitazar for displacement” value in test [2] came out at 60.3 nM. Moreover, the “EC50 of rosiglitazone for displacement” value in [3] turned out to be 333 nM. The “EC50 of aleglitazar for displacement” value in test [4] is 14.4 nM. Also, in test [5], the “EC50 of pioglitazone for displacement” value was 3700 nM. In test [6], the EC50 of tesaglitazar for displacement is 1780 nM and the delta ratio with tesaglitazar was -26%. The “EC50 of tesaglitazar for displacement” value in test [7] was found to be 346 nM. In addition, the EC50 of RO4899100 for displacement in [8] was 108 nM. Also, in test [9], the EC50 of muraglitazar for displacement is 563 nM and the delta ratio with muraglitazar was -28%. The “EC50 of farglitazar for displacement” value in [10] turned out to be 11.6 nM. The “EC50 of edaglitazone for displacement” value in [11] came out at 41.6 nM. Also, in test [12], the EC50 of edaglitazone for displacement was 790 nM and the delta ratio with edaglitazone is -20%.

B2: TIF2_M1 cofactor peptide (transcriptional intermediary factor 2, motif 1) (peptide)
peptide: {Biotin-Ahx}-SRLHDSKGQTKLLQLLTTKSD
notes: transcriptional intermediary factor 2 (TIF2), motif 1, residues 630-650; source: synthetic peptide (Jerini or Biosynthan, Berlin)
On to B2, for which, in [1], the EC50 of aleglitazar for recruitment was found to be 2.1 nM and the delta ratio with aleglitazar was 53%. For the same molecule, in test [2], the “EC50 of muraglitazar for recruitment” value was determined as 94.3 nM. For the same molecule, the “EC50 of rosiglitazone for recruitment” value in [3] stood at 951 nM. Also, the “EC50 of aleglitazar for recruitment” value in test [4] worked out at 43.2 nM. Moreover, in [13], the EC50 of fenofibric acid for recruitment turned out to be 2160 nM and the delta ratio with fenofibric acid stood at 34%. In test [6], the EC50 of tesaglitazar for recruitment worked out at 326 nM and the delta ratio with tesaglitazar was 70%. The “EC50 of tesaglitazar for recruitment” value in test [7] was 274 nM. The EC50 of RO4899100 for recruitment in [8] came out at 8.6 nM. Further, in [9], the EC50 of muraglitazar for recruitment came to 96.5 nM and the delta ratio with muraglitazar amounted to 31%. For the same molecule, the “EC50 of farglitazar for recruitment” value in test [10] is 16.1 nM. For the same molecule, in [11], the “EC50 of edaglitazone for recruitment” value amounted to 86.5 nM. Further, in [12], the EC50 of edaglitazone for recruitment is 945 nM and the delta ratio with edaglitazone stood at 26%.
With {Biotin-Ahx}-SPKKKENALLRYLLDKDDTK [TIF2_M3 cofactor peptide (transcriptional intermediary factor 2, motif 3)], in test [1], the EC50 of aleglitazar for recruitment was found to be 2.3 nM and the delta ratio with aleglitazar came out at 56%. Further, in test [13], the EC50 of fenofibric acid for recruitment was found to be 1290 nM and the delta ratio with fenofibric acid was 25%. In [6], the EC50 of tesaglitazar for recruitment was 377 nM and the delta ratio with tesaglitazar amounted to 53%. Moreover, in [8], the EC50 of RO4899100 for recruitment is 12.7 nM and the delta ratio with RO4899100 is 100%. Moreover, in test [9], the EC50 of muraglitazar for recruitment stood at 88.9 nM and the delta ratio with muraglitazar was found to be 29%. Also, in test [12], the EC50 of edaglitazone for recruitment was found to be 3670 nM and the delta ratio with edaglitazone was determined as 32%.
For the molecule {Biotin-Ahx}-STHGTSLKEKHKILHRLLQDS [TIF2_M2 cofactor peptide (transcriptional intermediary factor 2, motif 2)], in test [1], the EC50 of aleglitazar for recruitment was 1.6 nM and the delta ratio with aleglitazar came to 53%. For the same molecule, in test [13], the EC50 of fenofibric acid for recruitment stood at 5200 nM and the delta ratio with fenofibric acid worked out at 44%. Besides, in test [6], the EC50 of tesaglitazar for recruitment was determined as 182 nM and the delta ratio with tesaglitazar turned out to be 54%. Also, in test [8], the EC50 of RO4899100 for recruitment came to 5.9 nM and the delta ratio with RO4899100 came out at 100%. In test [9], the EC50 of muraglitazar for recruitment is 34 nM and the delta ratio with muraglitazar came to 33%. Besides, in [12], the EC50 of edaglitazone for recruitment was 294 nM and the delta ratio with edaglitazone came to 21%.

B3: RAC3_M3 cofactor peptide (receptor-associated co-activator 3, motif 3) (peptide)
peptide: {Biotin-Ahx}-PKKENNALLRYLLDRDDPSDV
notes: source: synthetic peptide (Jerini or Biosynthan, Berlin)
Regarding B3, in test [1], the EC50 of aleglitazar for recruitment turned out to be 4.4 nM and the delta ratio with aleglitazar came to 62%. Besides, the “EC50 of muraglitazar for recruitment” value in test [2] turned out to be 39.5 nM. Further, the “EC50 of rosiglitazone for recruitment” value in [3] is 271 nM. Further, the “EC50 of aleglitazar for recruitment” value in [4] came out at 9.5 nM. Moreover, the “EC50 of pioglitazone for recruitment” value in [5] came to 1860 nM. In test [6], the EC50 of tesaglitazar for recruitment came out at 941 nM and the delta ratio with tesaglitazar was 60%. In addition, the “EC50 of tesaglitazar for recruitment” value in test [7] worked out at 233 nM. Moreover, in test [8], the EC50 of RO4899100 for recruitment was found to be 25.9 nM. Further, in test [9], the EC50 of muraglitazar for recruitment came out at 330 nM and the delta ratio with muraglitazar came to 35%. Further, the “EC50 of edaglitazone for recruitment” value in test [11] came to 33.1 nM. Further, in test [12], the EC50 of edaglitazone for recruitment worked out at 1920 nM and the delta ratio with edaglitazone stood at 24%.

B4: RAC3_M2 cofactor peptide (receptor-associated co-activator 3, motif 2) (peptide)
peptide: {Biotin-Ahx}-SNMHGSLLQEKHRILHKLLQNGNSP
notes: as for B3
Take B4: the “EC50 of muraglitazar for recruitment” value in test [2] was 16.5 nM. In [3], the “EC50 of rosiglitazone for recruitment” value worked out at 125 nM. The “EC50 of aleglitazar for recruitment” value in test [4] came to 7.4 nM. In addition, the “EC50 of pioglitazone for recruitment” value in [5] was 1070 nM. The “EC50 of tesaglitazar for recruitment” value in test [7] was 110 nM. The “EC50 of farglitazar for recruitment” value in test [10] came to 6.5 nM. Moreover, the “EC50 of edaglitazone for recruitment” value in test [11] is 22.7 nM.
